Laboratory results from publication PMC7865249.

Key:
[1] = biological target: H111A HupZ-V5-His6 (Streptococcus pyogenes (Group A Streptococcus)); assay: SEC; protein reconstituted with 1.2 eq hemin and desalted, 200 uM, 1 mL injected; Superdex Increase 200 10/300 GL, 20 mM Tris-HCl, 50 mM NaCl, pH 7.4, 0.4 mL/min; mass from a calibration curve of standards
[2] = biological target: H111A HupZ-V5-His6 (Streptococcus pyogenes (Group A Streptococcus)); assay: SEC; ligand-free protein, 200 uM, 1 mL injected; Superdex Increase 200 10/300 GL, 20 mM Tris-HCl, 50 mM NaCl, pH 7.4, 0.4 mL/min; mass from a calibration curve of standards
[3] = biological target: HupZ-V5-His6 (heme utilization protein Z with a C-terminal V5-His6 tag) (Streptococcus pyogenes (Group A Streptococcus)); assay: SEC; protein reconstituted with 1.2 eq hemin and desalted, 200 uM, 1 mL injected; Superdex Increase 200 10/300 GL, 20 mM Tris-HCl, 50 mM NaCl, pH 7.4, 0.4 mL/min; mass from a calibration curve of standards
[4] = biological target: HupZ-V5-His6 (heme utilization protein Z with a C-terminal V5-His6 tag) (Streptococcus pyogenes (Group A Streptococcus)); assay: SEC; ligand-free protein, 200 uM, 1 mL injected; Superdex Increase 200 10/300 GL, 20 mM Tris-HCl, 50 mM NaCl, pH 7.4, 0.4 mL/min; mass from a calibration curve of standards

| Substance | stoichiometry N [1] | stoichiometry N [2] | stoichiometry N [3] | stoichiometry N [4] |
| --- | --- | --- | --- | --- |
| H111A HupZ-V5-His6 (natural protein) | 2 | 2 |  |  |
| HupZ-V5-His6 (heme utilization protein Z with a C-terminal V5-His6 tag) (natural protein) |  |  | 2 | 2 |
